Experiment [1] addresses optimized bait-PAR-Grb2 with inserted flexible linker sequences, RFP-fused (UniProt P62993). Description: subcellular micropatterning.
For experiment [2], the target named is optimized bait-PAR-Grb2 with inserted flexible linker sequences, GFP-fused (UniProt P62993). Description: TIR-FRAP on micropatterned bait.
Experiment [3] has the same target. Description: subcellular micropatterning.
Experiment [4] deals with T1, optimized bait-PAR-Grb2 with inserted flexible linker sequences, RFP-fused, P62993. Description: subcellular micropatterning. The note with it: remark: other sources report otherwise.
In experiment [5] the target is T1, optimized bait-PAR-Grb2 with inserted …. Description: TIR-FRAP on micropatterned bait. Conditions: remark: other sources report otherwise.

Several values for one entry are separate records, joined by “and”; a condition that tells them apart may be missing. Equal entries are not always repeated.

The term EC50 denotes the concentration needed to bring the measured effect to its halfway point. Low readings indicate greater potency, high ones weaker potency. Regarding “cell-permeable cyclic peptide cyclo(YpVNFΦrpPRR)”, in experiment [1], the EC50 is 68 µM and 63 µM; the dissociation half-life of Gab1 from Grb2 at 100 μM peptide stood at 42 s; the dissociation half-life of SOS1 from Grb2 at 100 μM peptide was 36 s; the maximum prey dissociation (Gab1 and SOS1 from Grb2) at 100 μM peptide was 70 to 75%.

In experiment [2], “SHC-transforming protein 1 (Shc1), RFP-fused (from UniProt P29353 1-583) (natural protein)” displayed a halftime of dissociation (FRAP) of 10 s and a k slow (exchange rate, bi-exponential FRAP fit) of 0.103 s⁻¹. Moreover, in experiment [3], the bait-normalized fluorescence contrast <c (prey/bait)>, after EGF amounted to 0.45 and the bait-normalized fluorescence contrast <c (prey/bait)>, unstimulated cells came out at 0.14.

B1: son of sevenless protein 1 (SOS1), GFP-fused, Q07889 1-1333 (natural protein)
chain: MQAQQLPYEFFSEENAPKWRGLLVPALKKVQGQVHPTLESNDDALQYVEELILQLLNMLCQAQPRSASDVEERVQKSFPHPIDKWAIADAQSAIEKRKRRNPLSLPVEKIHPLLKEVLGYKIDHQVSVYIVAVLEYISADILKLVGNYVRNIRHYEITKQDIKVAMCADKVLMDMFHQDVEDINILSLTDEEPSTSGEQTYYDLVKAFMAEIRQYIRELNLIIKVFREPFVSNSKLFSANDVENIFSRIVDIHELSVKLLGHIEDTVEMTDEGSPHPLVGSCFEDLAEELAFDPYESYARDILRPGFHDRFLSQLSKPGAALYLQSIGEGFKEAVQYVLPRLLLAPVYHCLHYFELLKQLEEKSEDQEDKECLKQAITALLNVQSGMEKICSKSLAKRRLSESACRFYSQQMKGKQLAIKKMNEIQKNIDGWEGKDIGQCCNEFIMEGTLTRVGAKHERHIFLFDGLMICCKSNHGQPRLPGASNAEYRLKEKFFMRKVQINDKDDTNEYKHAFEIILKDENSVIFSAKSAEEKNNWMAALISLQYRSTLERMLDVTMLQEEKEEQMRLPSADVYRFAEPDSEENIIFEENMQPKAGIPIIKAGTVIKLIERLTYHMYADPNFVRTFLTTYRSFCKPQELLSLIIERFEIPEPEPTEADRIAIENGDQPLSAELKRFRKEYIQPVQLRVLNVCRHWVEHHFYDFERDAYLLQRMEEFIGTVRGKAMKKWVESITKIIQRKKIARDNGPGHNITFQSSPPTVEWHISRPGHIETFDLLTLHPIEIARQLTLLESDLYRAVQPSELVGSVWTKEDKEINSPNLLKMIRHTTNLTLWFEKCIVETENLEERVAVVSRIIEILQVFQELNNFNGVLEVVSAMNSSPVYRLDHTFEQIPSRQKKILEEAHELSEDHYKKYLAKLRSINPPCVPFFGIYLTNILKTEEGNPEVLKRHGKELINFSKRRKVAEITGEIQQYQNQPYCLRVESDIKRFFENLNPMGNSMEKEFTDYLFNKSLEIEPRNPKPLPRFPKKYSYPLKSPGVRPSNPRPGTMRHPTPLQQEPRKISYSRIPESETESTASAPNSPRTPLTPPPASGASSTTDVCSVFDSDHSSPFHSSNDTVFIQVTLPHGPRSASVSSISLTKGTDEVPVPPPVPPRRRPESAPAESSPSKIMSKHLDSPPAIPPRQPTSKAYSPRYSISDRTSISDPPESPPLLPPREPVRTPDVFSSSPLHLQPPPLGKKSDHGNAFFPNSPSPFTPPPPQTPSPHGTRRHLPSPPLTQEVDLHSIAGPPVPPRQSTSQHIPKLPPKTYKREHTHPSMHRDGPPLLENAHSS
For the molecule B1, in experiment [4], the bait-normalized fluorescence contrast <c (prey/bait)>, after EGF stood at 0.56; the bait-normalized fluorescence contrast <c (prey/bait)>, basal conditions worked out at 0.55; the reduction of copatterning with 10 μM actinomycin D came to 25%. Besides, in experiment [5], the halftime of dissociation (FRAP) amounted to 13 s and the k slow (exchange rate, bi-exponential FRAP fit) is 0.074 s⁻¹.
